Experimental data as given in patent US20260242478A1 (published 2026).

Experiments:
[1] = target: Anti-CD28 Fab (SEQ ID NOs: 696, 697); assay: phage binding ELISA on captured anti-CD28 Fab, wells pre-incubated with CD28 antigen as competitor
Target sequence in this assay (VH, as listed by the source, chain 1 of 2): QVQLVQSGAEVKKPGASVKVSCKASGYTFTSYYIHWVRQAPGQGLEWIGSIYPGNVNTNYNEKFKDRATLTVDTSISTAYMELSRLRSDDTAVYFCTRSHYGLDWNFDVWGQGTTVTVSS
Target sequence in this assay (VL, as listed by the source, chain 2 of 2): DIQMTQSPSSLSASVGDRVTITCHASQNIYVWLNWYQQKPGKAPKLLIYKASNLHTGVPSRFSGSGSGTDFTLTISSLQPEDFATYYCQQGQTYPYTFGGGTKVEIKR
Description: (§1) Clonal phage were harvested as crude supematants and screened via standard ELISAs. […] Prior to the addition of clonal phage, wells were incubated with blocking buffer and CD28 antigen or blocking buffer alone. Without washing or aspirating, clonal phage supematants were then added to the wells and incubated for a short time. Wells were then washed followed by detection of bound phage using a horse radish conjugated anti-M13 antibody. Clonal phage of interest were then sent for sequence analysis.

[2] = target: Anti-CD28 Fab (SEQ ID NOs: 696, 697); assay: phage binding ELISA; biotinylated anti-CD28 Fab on neutravidin plate, clonal phage, anti-M13 HRP detection
Target sequence in this assay (VH, as listed by the source, chain 1 of 2): as the sequence (VH, as listed by the source, chain 1 of 2) above
Target sequence in this assay (VL, as listed by the source, chain 2 of 2): as the sequence (VL, as listed by the source, chain 2 of 2) above
Description: as §1

[3] = target: T1, Anti-CD28 Fab (SEQ ID NOs: 696, 697); assay: phage ELISA on captured anti-CD28 Fab; wells pre-incubated with CD28 antigen as competitor;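 note: clonal phage from crude supernatants added to wells pretreated with blocking buffer with or without CD28, bound phage read by ELISA with HRP-conjugated anti-M13 antibody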
T1 construct: In the phage ELISA the Fab was biotinylated and captured on neutravidin coated plates
T1 sequence (VH, as listed by the source, chain 1 of 2): as the sequence (VH, as listed by the source, chain 1 of 2) above
T1 sequence (VL, as listed by the source, chain 2 of 2): as the sequence (VL, as listed by the source, chain 2 of 2) above
Description: as §1

[4] = target: T1, Anti-CD28 Fab (SEQ ID NOs: 696, 697); assay: phage ELISA; biotinylated anti-CD28 Fab captured on neutravidin plate, clonal phage detected with HRP anti-M13 antibody
Description: (§2) Clonal phage were harvested as crude supematants and screened via standard ELISAs. […] Prior to the addition of clonal phage, wells were incubated with blocking buffer and CD28 antigen or blocking buffer alone. Without washing or aspirating, clonal phage supematants were then added to the wells and incubated for a short time. Wells were then washed followed by detection of bound phage using a horse radish conjugated anti-M13 antibody.

[5] = target: T2, Anti-CD28 Fab (SEQ ID NOs: 696, 697); assay: phage binding ELISA on captured Fab; wells pre-incubated with CD28 antigen as competitor
T2 construct: In the phage ELISA the Fab was biotinylated and captured on neutravidin coated plates
T2 sequence (VH, as listed by the source, chain 1 of 2): as the sequence (VH, as listed by the source, chain 1 of 2) above
T2 sequence (VL, as listed by the source, chain 2 of 2): as the sequence (VL, as listed by the source, chain 2 of 2) above
Description: as §2

[6] = target: T2, Anti-CD28 Fab (SEQ ID NOs: 696, 697); assay: phage binding ELISA; biotinylated Fab on neutravidin plate, clonal phage supernatant, anti-M13 HRP detection
Description: as §1

Binder | Anti-CD28 Fab signal in the presence of CD28 (phage binding ELISA) [1] | Anti-CD28 Fab signal (phage binding ELISA) [2] | Phage binding ELISA, Anti-CD28 Fab signal in the presence of CD28 [3] | Phage binding ELISA, Anti-CD28 Fab signal [4] | Anti-CD28 Fab signal in the presence of CD28 [5] | Anti-CD28 Fab (SEQ ID NOs: 696, 697) signal [6]
SCSAGATWAWPQCF (Tested as clonal phage supernatant) [Phage-1641 (peptide-92 library clone, SEQ ID NO: 1937)] | 0.08 | 1.19 | – | – | – | –
SCSAVFSYRWPKCL (Tested as clonal phage supernatant) [Phage-1642 (peptide-92 library clone, SEQ ID NO: 1938)] | 0.06 | 1.18 | – | – | – | –
TCAAGANYSWPACL (Tested as clonal phage supernatant) [Phage-1646 (peptide-92 library clone, SEQ ID NO: 1942)] | 0.08 | 1.14 | – | – | – | –
TCSAGATYKWPACF [Phage-1619] | – | – | 0.05 | 1.29 | – | –
TCAAGATWTWPTCM [Phage-1655] | – | – | – | – | 0.06 | 1.07
TCSAGAHYEWPKCL [Phage-1649] | – | – | – | – | 0.07 | 1.12
SCSAGAGWAWPMCF (Tested as clonal phage supernatant) [Phage-1643 (peptide-92 library clone, SEQ ID NO: 1939)] | 0.08 | 1.16 | – | – | – | –
TCAAGANYAWPVCL [Phage-1652] | – | – | – | – | 0.13 | 1.09
SCAAGFHYEWPQCF [Phage-1658] | – | – | – | – | 0.06 | 1.06
TCAAGATYSWPSCF [Phage-1651] | – | – | – | – | 0.07 | 1.1
TCAAGAVWTWPICF [Phage-1630] | – | – | 0.05 | 1.23 | – | –
TCAAGAHYEWPQCF [Phage-1653] | – | – | – | – | 0.06 | 1.08
TCAAGATYNWPWCF [Phage-1654] | – | – | – | – | 0.07 | 1.07
PCSDGVAYPWPYCV (Tested as clonal phage supernatant) [Phage-1638 (peptide-92 library clone, SEQ ID NO: 1934)] | 0.06 | 1.2 | – | – | – | –
SCAAGATWKWPECL [Phage-1628] | – | – | 0.07 | 1.24 | – | –
TCSAGATYSWPYCL (Tested as clonal phage supernatant) [Phage-1633 (peptide-92 library clone, SEQ ID NO: 1929)] | 0.07 | 1.22 | – | – | – | –
TCSAGASWGWPWCL [Phage-1632] | – | – | 0.07 | 1.22 | – | –
SCAAGAHWSWPVCF (Tested as clonal phage supernatant) [Phage-1639 (peptide-92 library clone, SEQ ID NO: 1935)] | 0.08 | 1.2 | – | – | – | –
NCSAGATWPWPMCF [Phage-1622] | – | – | 0.06 | 1.27 | – | –
LCSAGAMYPWPVCL (Tested as clonal phage supernatant) [Phage-1640 (peptide-92 library clone, SEQ ID NO: 1936)] | 0.08 | 1.19 | – | – | – | –
TCAAGATWLWPWCL [Phage-1629] | – | – | 0.07 | 1.23 | – | –

Binder | Anti-CD28 Fab signal in the presence of CD28 (phage binding ELISA) [1] | Anti-CD28 Fab signal (phage binding ELISA) [2] | Phage binding ELISA, Anti-CD28 Fab signal in the presence of CD28 [3] | Phage binding ELISA, Anti-CD28 Fab signal [4] | Anti-CD28 Fab signal in the presence of CD28 [5] | Anti-CD28 Fab (SEQ ID NOs: 696, 697) signal [6]
RCAAGAMWTWPACF [Phage-1626] | – | – | 0.06 | 1.25 | – | –
SCSAGATYQWPYCF [Phage-1623] | – | – | 0.06 | 1.26 | – | –
TCSAGATYTWPVCF [Phage-1648] | – | – | – | – | 0.06 | 1.13
TCAAGATYMWPVCL [Phage-1627] | – | – | 0.07 | 1.24 | – | –
PCAAGAQWSWPMCL [Phage-1656] | – | – | – | – | 0.09 | 1.07
TCSAGATYSWPSCF (Tested as clonal phage supernatant) [Phage-1634 (peptide-92 library clone, SEQ ID NO: 1930)] | 0.09 | 1.21 | – | – | – | –
LCEEFFHYSWPLCL (Tested as clonal phage supernatant) [Phage-1637 (peptide-92 library clone, SEQ ID NO: 1933)] | 0.06 | 1.21 | – | – | – | –
QCAAGATYPWPVCL [Phage-1647] | – | – | – | – | 0.09 | 1.13
TCSAGATYSWPLCF [Phage-1650] | – | – | – | – | 0.09 | 1.12
TCTAGFSYKWPTCL [Phage-1621] | – | – | 0.09 | 1.28 | – | –
SCADGFNYVWPLCF (Tested as clonal phage supernatant) [Phage-1645 (peptide-92 library clone, SEQ ID NO: 1941)] | 0.08 | 1.14 | – | – | – | –
SCAAGSTWAWPACL [Phage-1657] | – | – | – | – | 0.07 | 1.07
SCAAGATYSWPACL [Phage-1624] | – | – | 0.07 | 1.25 | – | –
TCADGAFWQWPVCL [Phage-1631] | – | – | 0.07 | 1.22 | – | –
TCAAGANWPWPECL (Tested as clonal phage supernatant) [Phage-1636 (peptide-92 library clone, SEQ ID NO: 1932)] | 0.08 | 1.21 | – | – | – | –
SCAAGFDYGWPMCL (Tested as clonal phage supernatant) [Phage-1644 (peptide-92 library clone, SEQ ID NO: 1940)] | 0.06 | 1.16 | – | – | – | –
LCAAGATYPWPDCV (Tested as clonal phage supernatant) [Phage-1635 (peptide-92 library clone, SEQ ID NO: 1931)] | 0.05 | 1.21 | – | – | – | –
LCAAGAYYPWPLCF [Phage-1620] | – | – | 0.06 | 1.28 | – | –
SCTAGFRIHWPMCF [Phage-1659] | – | – | – | – | 0.12 | 1.06
NCAAGAMYSWPTCL [Phage-1625] | – | – | 0.07 | 1.25 | – | –
